Experiment [1] concerns the target West Nile virus strain USA99b (strain 385-99), whole virus (West Nile virus strain 385-99 (USA99b)). In words: ELISA on irradiated WNV; antibody diluted 1:25. In general terms: In an ELISA, binding on a coated surface is turned into a signal by an enzyme label.
The target is the same in experiment [2]. In words: ELISA on irradiated WNV; antibody diluted 1:5.
Experiment [3] deals with WNV-like particles with E protein mutation A365V (West Nile virus strain 382-99) (UniProt Q9Q6P4).
Experiment [4] deals with West Nile virus strain USA99b (strain 385-99), whole virus (West Nile virus strain 385-99 (USA99b)). Nature of the experiment: ELISA on irradiated WNV; antibody diluted 1:125.
The target is the same in experiment [5]. Nature of the experiment: SPR (BIAcore3000), WNV captured via immobilized CR4283, IgG injected, bivalent analyte model, average of duplicates. On the technique in general: Surface plasmon resonance follows binding to a sensor surface in real time, without labels.
Experiment [6] has the same target. In words: ELISA on irradiated WNV; antibody at 20.000 µg/ml.

For the substance “WNV-E protein specific murine antibody 7H2”, the OD 492 nm amounted to 2.12 OD in experiment [1], 2.09 OD in experiment [2] and 2.13 OD in experiment [4]. Moreover, in experiment [3], the fold binding against wild-type VLP came to 2 fold. This substance also registered a Kd in experiment [5] of 0.32 nM.

Take “anti-rabies virus antibody (negative control)”: the OD 492 nm in experiment [1] came to 0.056 OD; in experiment [2], 0.062 OD; in experiment [4], 0.046 OD; in experiment [6] it was 0.051 OD.

The record behind these values is patent US7537764.
